Assay results as given in US20100254972A1.

Legend:
[1] = target: IL-RI-Fc (a fusion of IL-1RI and Fc); assay: phage-displayed dAb; trypsin 100 µg/ml, 1 hr, room temp; biopanning on 1 nM IL-1RI-Fc
[2] = target: IL-RI-Fc (a fusion of IL-1RI and Fc); assay: phage-displayed dAb; trypsin 10 µg/ml, 1 hr, room temp; biopanning on 1 nM IL-1RI-Fc
[3] = target: IL-RI-Fc (a fusion of IL-1RI and Fc); assay: phage-displayed dAb; no trypsin, 1 hr, room temp; biopanning on 1 nM IL-1RI-Fc
[4] = target: IL-RI-Fc (a fusion of IL-1RI and Fc); assay: phage-displayed dAb; trypsin 100 µg/ml, overnight, 37 C; biopanning on 1 nM IL-1RI-Fc
[5] = target: IL-RI-Fc (a fusion of IL-1RI and Fc); assay: phage-displayed dAb; no trypsin, overnight, room temp; biopanning on 1 nM IL-1RI-Fc
[6] = target: IL-RI-Fc (a fusion of IL-1RI and Fc); assay: phage-displayed dAb; trypsin 10 µg/ml, overnight, 37 C; biopanning on 1 nM IL-1RI-Fc
[7] = target: IL-RI-Fc (a fusion of IL-1RI and Fc); assay: phage-displayed dAb; no trypsin, overnight, 37 C; biopanning on 1 nM IL-1RI-Fc
[8] = target: IL-1R1; assay: Receptor Binding Assay, inhibition of IL-1 binding to IL-RI
[9] = target: IL-RI-Fc (a fusion of IL-1RI and Fc); assay: phage-displayed dAb; trypsin 10 µg/ml, overnight, room temp; biopanning on 1 nM IL-1RI-Fc
[10] = target: IL-RI-Fc (a fusion of IL-1RI and Fc); assay: phage-displayed dAb; trypsin 100 µg/ml, overnight, room temp; biopanning on 1 nM IL-1RI-Fc

Sequence of IL-RI-Fc (a fusion of IL-1RI and Fc) (P14778 whole entry, the tested form may be a part): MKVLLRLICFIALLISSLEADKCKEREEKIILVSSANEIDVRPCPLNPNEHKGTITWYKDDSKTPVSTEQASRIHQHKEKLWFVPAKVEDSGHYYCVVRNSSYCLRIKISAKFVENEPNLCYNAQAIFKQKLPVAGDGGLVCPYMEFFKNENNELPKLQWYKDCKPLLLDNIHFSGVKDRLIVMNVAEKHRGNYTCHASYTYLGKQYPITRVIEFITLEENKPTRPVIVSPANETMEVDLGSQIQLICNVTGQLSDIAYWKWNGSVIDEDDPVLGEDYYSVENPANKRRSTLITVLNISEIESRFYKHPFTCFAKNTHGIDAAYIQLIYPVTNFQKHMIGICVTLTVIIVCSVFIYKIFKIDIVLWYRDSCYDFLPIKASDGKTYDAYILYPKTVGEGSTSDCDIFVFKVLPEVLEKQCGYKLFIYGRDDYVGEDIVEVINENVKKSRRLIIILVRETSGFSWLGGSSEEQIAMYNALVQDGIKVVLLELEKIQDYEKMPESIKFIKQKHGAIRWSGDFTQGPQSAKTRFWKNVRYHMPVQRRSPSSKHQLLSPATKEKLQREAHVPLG
Sequence of IL-1R1 (P14778 whole entry, the tested form may be a part): as above

B1: DOM4-130-54 (protein)
VL: DIQMTQSPSSLSASVGDRVTITCRASQDIYLNLDWYQQKPGKAPKLLINFGSELQSGVPSRFSGSGYGTDFTLTISSLQPEDFATYYCQPSFYFPYTFGQGTKVEIKR
[1]
  titre of phage after biopanning: 1.8e+10
[2]
  titre of phage after biopanning: 7.2e+09
[3]
  titre of phage after biopanning: 6.6e+09
[4]
  titre of phage after biopanning: 2.04e+06
[5]
  titre of phage after biopanning: 7.8e+09
[6]
  titre of phage after biopanning: 3.84e+08
[7]
  titre of phage after biopanning: 7.2e+09
[8]
  IC50: 0.28 nM
[9]
  titre of phage after biopanning: 7.2e+09
[10]
  titre of phage after biopanning: 2.16e+09
